Reference: article PMC12680531 (2026)
No end group written: not given here.

Biological target: 12A8
Assay: SPR

- Kd: 8.34 nM
Binder: TWGYPFHDGDYLNDE (also: biotin, position not given here, GSAGGS spacer, position not given here) [biotinylated hTM4SF4 (T126-E140) peptide containing a GSAGGS spacer]
